{"source": "paper PMC6957217", "target": "E. coli bacteria", "assay": "binding to whole E. coli cells in presence of purified E. coli B LPS", "settings": "read off a plot"}
{"substance": "Phage T4 LTF needle (gp37; amino acids 799–1026), wild type (from UniProt P03744) G938A", "values": [{"measurement": "response", "setting": "LPS 0.32 ng, parent: est. 32", "result": 90, "unit": "% Binding"}, {"measurement": "response", "setting": "LPS 1.6 ng, parent: est. 47", "result": 85, "unit": "% Binding"}, {"measurement": "response", "setting": "LPS 8 ng, parent: est. 62", "result": 92, "unit": "% Binding"}, {"measurement": "response", "setting": "LPS 40 ng, parent: est. 87", "result": 92, "unit": "% Binding"}, {"measurement": "response", "setting": "LPS 200 ng, parent: est. 130", "result": 100, "unit": "% Binding"}, {"measurement": "response", "setting": "LPS 1000 ng, parent: est. 190", "result": 110, "unit": "% Binding"}, {"measurement": "response", "setting": "LPS 5000 ng, parent: est. 230", "result": 120, "unit": "% Binding"}]}
{"substance": "Phage T4 LTF needle (gp37; amino acids 799–1026), wild type (from UniProt P03744) N937A", "values": [{"measurement": "response", "setting": "LPS 0.32 ng, parent: est. 32", "result": 90, "unit": "% Binding"}, {"measurement": "response", "setting": "LPS 1.6 ng, parent: est. 47", "result": 92, "unit": "% Binding"}, {"measurement": "response", "setting": "LPS 8 ng, parent: est. 62", "result": 94, "unit": "% Binding"}, {"measurement": "response", "setting": "LPS 40 ng, parent: est. 87", "result": 98, "unit": "% Binding"}, {"measurement": "response", "setting": "LPS 200 ng, parent: est. 130", "result": 110, "unit": "% Binding"}, {"measurement": "response", "setting": "LPS 1000 ng, parent: est. 190", "result": 140, "unit": "% Binding"}, {"measurement": "response", "setting": "LPS 5000 ng, parent: est. 230", "result": 150, "unit": "% Binding"}]}
